Source: the DeepSol protein solubility set

test: soluble on expression in E. coli; label from the status in PepcDB or PDB records

Row | Sequence | soluble on expression in E. coli
1 | MPYSSSGVGHNGFDKADLHIHTKCSDGLFTPEEIVHKAIHVGLKAISITDHDTVTGIDQAKPLALELGLELIPGVEMSSAYKGYDIHILGYFFDYQQSELKGYLDHCRLLRTERAERMVQKLAKMGVKIEIEQIIMKAQNGSVGRPHIAAVLQDEGFVKSFSEAFSKYLGSHSPAYVKSIETHPEEVIRLINEAGGLSFLAHPAQNVPDEILRQLISFGLDGLEIIHPSHDTYRQNYYREIANEYFLLFSGGSDYHGPKDHEDNFGQVWIPYEWVTKMKSRLAPAVKE | not soluble
2 | MQAKIAASNTGELDALQQLGFSLVEGEVDLALPVNNASDSGAVVAQETDIPALRQLASAAFAQSRFRAPWYAPDASSRFYAQWIENAVRGTFDHQCLILRAASGDIRGYVSLRELNATDARIGLLAGRGAGAELMQTALNWAYARGKTTLRVATQMGNTAALKRYIQSGANVESTAYWLYR | not soluble
3 | MQDFKKLPTVLTAEELIDKIFRRAARVEGRNPKEKALNKLATISNVSRDYFGKIIGAHPSYENLPDFYREMVDVVVGIRQLKKSLVALKWADGMIQKVVSRAVREVKGGKNPSAVVKSAYGRVASIIEQIDDELRFLNDAKNRMREIPILQDLPTIVVAGYPNVGKSSLVARISTVKPEVASYPFTTKKINLGFAEFAGKRVQIIDTPGLLDRPLSKRNRIERRAVLALKHLADIILFVIDPTETCGYSLEKQLSLLEEIKGYFAKPTVEVYSKADMHDRRDRQAYSAVTGEGIDELIKEIEKMVKIHSQTSTVIAPSGQTSTQEQHSAAALEHHHHHH | not soluble
4 | MQEAVNSALPGDVIIVKPGSYYDHVTVTTNNLVIRSESGNPEDTVIEGYNPTADVFTIEADNITLEGFTIMGAGANCSGLCLHGCTNCLIDSNTFFNDFRGIYLKSSLNNDILNNIVIKGGRGISIEESNHNSVSKNKVSECGYGINLLNSKDNRISKNTVAGNKDYGILVQSSDSNTFSRNNASENGRGIHIGNSDGNTLSNNKISLNEVHGLFVCPKSDKNLVYNNYFSNTLNVEANNGTSNVYHKSRTKGENIVGGPYIGGNYWATPEGSGFSETAADNNGDGIADEKYLFETSDYFDPLPLIAYKPPEPVLPTANLSINTPEDYAPLSVQFTDLSENATSRTWDFENDGVIDSPDETPVYTYPSPGTYTVNLTAACENGTDTKLITINVGENNVAEIQPESAPGEESMSTTGSQAEQNSEQEGISSIPGFEMLYGIFCLLAIFLYKESTKLEHHHHHH | not soluble
5 | MQEKPQEPKVVGVEILEKSGLDIKKLVDKLVKATAAEFTTYYYYTILRMHLTGMEGEGLKEIAEDARLEDRLHFELMTQRIYELGGGLPRDIRQLADISACSDAYLPENWKDPKEILKVLLEAEQCAIRTWKEVCDMTYGKDPRTYDLAQRILQEEIEHEAWFLELLYGRPSGHFRRSSPGNAPYSKK | soluble
6 | MQEYTNHSDTTFALRNISFRVPGRTLLHPLSLTFPAGKVTGLIGHNGSGKSTLLKMLGRHQPPSEGEILLDAQPLESWSSKAFARKVAYLPQQLPPAEGMTVRELVAIGRYPWHGALGRFGAADREKVEEAISLVGLKPLAHRLVDSLSGGERQRAWIAMLVAQDSRCLLLDEPTSALDIAHQVDVLSLVHRLSQERGLTVIAVLHDINMAARYCDYLVALRGGEMIAQGTPAEIMRGETLEMIYGIPMGILPHPAGAAPVSFVY | soluble
7 | MQFLQKFPPFNQMENAHLAYLVEQCQLRFYAADESIIKPGDGPVEHFYIVKQGRIVGERPHSAKRGTETTFEITTGECFPLAALLGERATRTEHLAAEDTFCLQLNKQAFIKLFALSTTFRDFALRGVSSLLDQVNQQVQQRAAETLGTQYSLNTRLGELAMRHPVMCSPDMPMRDAVKLMHEQQVGSIVIVDEQQAPLGIFTLRDLREAVADVNADFSAPVKNTMSPSPFHLSPDASAFDAAIAMTGRHIAHVCLVRDGRLCGVVSERDLFSLQRVDLVHLARTIRNAPRIEALAGLRGDIVQLVDRMLAHGASSTQITQIITLLNDHTVCRVIELTLAEKGDPGVPFSWLCFGSEGRREQTLHTDQDNGILFEASDATEAEQIRTLLLPIAERINQSLAQCGFTLCKGNIMAGNPDLCLSRLEWSRRFSAFIREATPENLLASSIYFDLRVVWGDESGGGQLRRGILDQVADNRLFQRMMAENALRQRPPVGRFKDFVLARKGSEKDTLDLKTEGLTPFVDGARLLALANGIGVNNTQERLRQLVEREVIDPLDGAAYEEAYHFIQQTRMQQHQLQSRQNLAYSNRIDPDTLNHLDRRILRESFRQAQRLQMSLTMRYQL | not soluble
8 | MQFPVLQESSQSALPQLTGILSSLIVTEEVKAAETDAIMAANTGKSEIVQVTYKLFGLIPFKSSAIQVMPQLKLLPGGQSIGVSLQAKGVMVVGQAAVQNQEGKLVYPAKEAGIEVGDIILKIDGREMNSDQDVANAIHRAGEKQGFSEILLNHNGQTMQKRVSTVYCPETNRHRVGLYVRNEAAGVGTLTFYDPTNHKYGALGHVINDVDTNQKIEILNGNVVASTIYAIEKGKRGHPGEKIGSFVNQSKFSGNIEKNTVSGIFGSLEGEIKNPYFQEPITVGWESEIKEGPAKIYTVLEGERIEEYDVQIERIMHNRTDSKNMVIKVTDPELVEKTGGIIQGMSGSPIVQDGKIIGAVTHVFVNDASRGYGVFIQNMLKDADIIDKKEVALEHHHHHH | not soluble
9 | MQFSLVIPVYNAGMMWPEVIRSIKSQTIQPECVIIIDSSSTDNTVAYATEAGFEVYHIDKSTFDHGGTRSMALERVNTEFVIYMTQDAILQNDEAFFYLLSAFNNEEVGAVYGRQLPHHDANPLATHARLHSYGEVGYVTSMKDDFPQGFRKAFMSNSFSGYRVSTLRQIGGFPAKLILGEDSYVAARMLSTGVSVGYIPQALARHSHNYSVGEEFKRYFDIGVFHKTQEWMLASLGKVEGEGVKFALGQICYLLKSNYYHYIPFSIASSGAKYLGYKLGKNYHRLNRTLCKKLSMYKSYWNSSVLEHHHHHH | soluble
10 | MQFTLEHAQDVLSGMPDPTFILSEDGIYIDVFGGTDKKAYHDGSNLIGKTLHSVLEKEQADWFIEQINRSLNQDSIVTIEYKMCADSIQGIDANSGPKGDLYYEGKICPLTINYQGRRVVLILTRNISNRHRVETLLRHQSQI | not soluble
11 | MQFYNRQKELKLMELLDQGKPSFFVITGKRRVGKTELIKQFTRNRKALYLFVDSNKSINILMDEFDRLLKEKLDLPDYIKVDEPENFLKFITSYDRDLVIAIDEFQRFQKVYPSFITQLQRYWDMKPDNCRIFLIVSGSSIGMIRKIFIEEQAPLFKRADNILTIKPFTVLETFEMLDGMGIKNPEEKLNLYFLFGGTVYYYRLFEKYQCTGFDDALEKLIFSEFAPLKNEVREILIEEFGKEHSTYYEIISAISQGRCSMSEISDMTHVSSSSLSPYFYDLIDLLGVVEHRIPVMDNPEKSKRGRYFLKDNFFRFYGRFIYPMYSRYMAGNYSPMLEKVRKEWQSYTGKIFEDIVHELLVEKMISDYPELGSWWNRKGDEIDILGVDHRGRKSLVIEVKNKELAENEAREILELTLDKTKLVKGISGQKLKVGIVAQKVKGRKNLEDDGFLVWELEELIPLEHHHHHH | not soluble
12 | MQGQKIPATVITGFLGSGKTTMIRNLLENANGKRIALIINEFGDLGVDGGILKRCGIETCREEDVIELNNGCICCTVADDFIPTMTKLLDREDRPDHIVIETSGLALPQPLVAAFNWPEIKTQVTVDGVVTVIDAAAVAEGRFADDHDKVDAQRAADESLDHESPLEELFEDQIHAADLIVLNKADLIDAAKLDSVKADVAERSSRRVNMVPASFGKLGADVLLGLGVGTEDDIVNRRSHHEAHHGDGHEHDHDEFESFVVEAGSVADPKAFAEKLKAVIAEHDILRLKGFVDVPGKPMRLVVQAVGPRIEHYFDRPWGKDETRSTRLVVIGLHDIDEAAIAQAVKDADLEHHHHHH | not soluble
13 | MQIDVDPQEDPQNAPDVNYVVENPTLDLEQYAASYSGLMRIERLQFIADRCPPLRVEALKMALSFVQRTFNVDMYEEIHRKLSEATRELQNAPDAIPESGVEPPPLDTAWVEATRKKALLKLEKLDTDLKNYKGNSIKESIRRGHDDLGDHYLDCGDLSNALKCYSRARDYCTSAKHVINMCLNVIKVSVYLQNWSHVLSYVSKAESTPEIAEQRGERDSQTQAILTKLKCAAGLAELAARKYKQAAKCFLLASFDHCDFPELLSPSNVAVYGGLCALATFDRQELQRNVISSSSFKLFLELEPQVRDIIFKFYESKYASCLKMLDEMKDNLLLDMYLAPHVRTLYTQIRNRALIQYFSPYVSADMHKMAAAFNTTVAALEDELTQLILEGLINARIDSHSKILYARDVDQRSTTFEKSLLMGKEFQRRAKAMILRAAVLRNQIHVKVKSLGCEGMGGTHTASTEPSLSTAVSS | not soluble
14 | MQIKILATSDMHGYIMPTSYSEKKMDLPFGTAKAATMLKKLRASAKGPVFQIENGDFIQGSPLSYYVRKAETHSVAAITKIINQMNYDVSILGNHEFNYGLDYLKETIASYQQPVLAANILGKDGQPYFGQPYVIIEKQGVKVAILGVTTQYIPHWEQPATVKDLTFKSVVETAAEYVPKLREEADLVVVAYHGGFEKDLETGEPTELLTGENEGYDLLEKVPGIDALVTGHQHREIATKLNGIPVIQPGFRGAFVGEITLEIEPMAKGYHVIGSDAAIHPVGNEQPDTEVLALTTALHDEVEEWLDQPVGNVEGDMTIQNPNAVRLKEHPYIEFINNVQMASSGTDISGTALFNNEGKGFNNQITMRDIITNYIYPNTLAVLRVTGQDLREALEQSATYFVLEKGQPIFNPKYVDPKPQYYNYDMYEGIEYTLDLRQPFGERVTKLNYHGKAVQAEDVLEIVTNQYRAVGGGNYQMFQPEKIIREIQIDMTELIAEYLKKHPIIQASTNDNFKVIW | not soluble
15 | MQKIVIVANGAPYGSESLFNSLRLAIALREQESNLDLRLFLMSDAVTAGLRGQKPGEGYNIQQMLEILTAQNVPVKLCKTCTDGRGISTLPLIDGVEIGTLVELAQWTLSADKVLTF | soluble
16 | MQLASRFGHVNQIRRDRPLTREELMQVVPSVFGEDKHTSRSENYTWIPTITVLESLQREGFQPFFACQTRVRDPGRRGYTKHMLRLRRDGEINGQHVPEIILLNSHDGTSSYQMLPGYFRFVCQNGCVCGQSLGEVRVPHRGNVVEKVIEGAYEVVGVFDRIEEKRDAMQSLVLPPLARQALAQAALTYRYGDEHQPVTTADILTPRRREDYGKDLWSAYQTIQENMLKGGISGRSAKGKRIHTRAIHSIDTDIKLNRALWVMTETLLENMR | not soluble
17 | MQLDPPEPGFYDDPDLSYSIEKSITNWDEKRHEWFKSHPSFKPGSENRILMVTGSQSSPCKNPIGDHLLLLRCFKNKVDYARIHGHDIFYSNSLLHPKMNSYWAKLPVVKAAMLAHPFMD | not soluble
18 | MQLEIKGKTHNVKFGTRFVAEMDKNHIAERQGFKFGAGLQSSVPFLIDHSVVTLAEVIYTGTITEPPRPSLNDIYDYIDEVEDIEKLFDDVLDELRQSNASKLFMAQVEKDLAEAKA | not soluble
19 | MQLIPFEIPGILVGRFEKCSDNKREDERQRISLLLRRVFPHDTPQIGHLPSGKPILDSAHNISISHTGSYGAIYVTPSSLIPGIDIEMLSDRALRVAPRFMNEREYEWLMSADEARRRLLATIIWSAKETAYKIFNPSDASLKRFDVALPFELPSENTLFSFELIYSDSCTGDIHIPVQALCTGEFILTCACHCSHSR | not soluble
20 | MQLLTEKDRPEEEKREETWRRLKRDIASSANTIHEIDTGKARGYNRALFVSSIFNKVSTFAGHGDVEIVQKAIDFISEYNAGIKKPVITPRHRFFQLAETASRMRDKLKETQELENREVTFEGGILVWNYQESRLQVFFNKIPEESKRRELKSSGFHWSPRNRAWQRQLNPNAVSAAKRILNL | not soluble
